Measurements taken from patent EP1418184A1.

Target: IL-12 receptor on activated peripheral blood lymphocytes (human) (UniProt P42701)
Assay: cell-based or functional assay

IFN-gamma secretion of preactivated T cells (ELISA, 48 h), activity against natural IL-12 at equimolar amounts (times lower than IL-12): 5 to 10
Substance: HRS3-scFv-hi-IL-12 fusion protein
